Patent US20170260257A1
Values joined by “and” are separate entries in the source; they are usually repeats but may differ in a detail not shown here. Equal values may be shown once.

Molecular target: BSA (UniProt P02769)
Experiment: sandwich ELISA: plate coated with the antibody, BSA as negative sample, detection with sheep anti-HBsAg/peroxidase

Chain of BSA (P02769 25-607 limits assumed): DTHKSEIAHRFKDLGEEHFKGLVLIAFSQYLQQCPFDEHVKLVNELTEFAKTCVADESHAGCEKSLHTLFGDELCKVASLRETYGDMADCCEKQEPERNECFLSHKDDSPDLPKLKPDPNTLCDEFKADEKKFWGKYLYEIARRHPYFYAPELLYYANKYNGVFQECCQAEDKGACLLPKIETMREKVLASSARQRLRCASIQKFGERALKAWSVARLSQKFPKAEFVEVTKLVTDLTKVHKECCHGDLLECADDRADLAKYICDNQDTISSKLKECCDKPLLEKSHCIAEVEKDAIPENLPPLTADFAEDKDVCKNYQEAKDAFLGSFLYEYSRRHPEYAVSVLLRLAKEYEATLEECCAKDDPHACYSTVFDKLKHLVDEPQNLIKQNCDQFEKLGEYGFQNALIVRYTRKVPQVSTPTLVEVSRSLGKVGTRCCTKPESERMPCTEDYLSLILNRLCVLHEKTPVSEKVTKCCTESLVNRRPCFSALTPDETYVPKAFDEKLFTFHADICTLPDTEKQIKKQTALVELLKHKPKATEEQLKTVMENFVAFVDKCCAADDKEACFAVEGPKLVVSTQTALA

B1: the antibody of the present invention comprising a heavy-chain variable region having amino acid sequence of SEQ ID NO: 2 and a light-chain variable region … (antibody, V domains shown)
VH: EVQLVESGGGLVKPGGSLRLSCSASGFSLTKYKMTWVRQAPGKGLEWVSSISSTSRDIDYADSVKGRFTISRDNAKNSLFLQMSSLRVDDTAVYYCTRDGWLWGWDVRSNYYYNALDVWGQGTTVTVSS
VL: DIVVTQSPSSLSASVGDRVTITCRASQGIYNSIAWYQQKPGKAPKLLLYSTSTLLSGVPSRFSGSGSGTDYTLTITNLQPEDFATYYCQQYFVTPETFGQGTKLEIKR
Question: For B1, which A450 is on record?
Answer: 0.251 A450 and 0.263 A450
